Source: the supplement of paper PMC9233669
This sample holds only a part of the variants without activity.

Experiments:
biotinyl-Val-oxazolone = experiment: self-aminoacylation, catalytic enhancement (BVO) (fold over background); higher = more active; k-Seq, kA / k0A0; sequences stand for … in GGGAAUGGAUCCACAUCUACGAAUUC…UUCACUGCAGACUUGACGAAGCUG
In short: (§1)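 Mutagenized RNA pools with a 21-nt variable region (0.43 μM) were reacted with each biotinyl-aminoacyl-oxazolone at 2–1250 μM for 90 minutes at room temperature, in 50 μL HEPES/NaCl/KCl/MgCl2/CaCl2 buffer containing 5% acetonitrile at pH 6.9–7.0. RNA captured on streptavidin was quantified by triplicate qPCR and by Illumina sequencing. The fraction reacted for each sequence was fit to a pseudo-first-order model with bootstrapping, and catalytic enhancement is the median kA divided by the uncatalyzed rate, taken as the low-activity peak of a bimodal Gaussian fit.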

biotinyl-Leu-oxazolone = experiment: self-aminoacylation, catalytic enhancement (BLO) (fold over background); higher = more active; k-Seq, kA / k0A0; sequences stand for … in GGGAAUGGAUCCACAUCUACGAAUUC…UUCACUGCAGACUUGACGAAGCUG
In short: as §1

biotinyl-Ile-oxazolone = experiment: self-aminoacylation, catalytic enhancement (BIO) (fold over background); higher = more active; k-Seq, kA / k0A0; sequences stand for … in GGGAAUGGAUCCACAUCUACGAAUUC…UUCACUGCAGACUUGACGAAGCUG
In short: as §1

biotinyl-Trp-oxazolone = experiment: self-aminoacylation, catalytic enhancement (BWO) (fold over background); higher = more active; k-Seq, kA / k0A0; sequences stand for … in GGGAAUGGAUCCACAUCUACGAAUUC…UUCACUGCAGACUUGACGAAGCUG
In short: as §1

biotinyl-Phe-oxazolone = experiment: self-aminoacylation, catalytic enhancement (BFO) (fold over background); higher = more active; k-Seq, kA / k0A0; sequences stand for … in GGGAAUGGAUCCACAUCUACGAAUUC…UUCACUGCAGACUUGACGAAGCUG
In short: as §1

biotinyl-Met-oxazolone = experiment: self-aminoacylation, catalytic enhancement (BMO) (fold over background); higher = more active; k-Seq, kA / k0A0; sequences stand for … in GGGAAUGGAUCCACAUCUACGAAUUC…UUCACUGCAGACUUGACGAAGCUG
In short: as §1

Sequence | self-aminoacylation (biotinyl-Val-oxazolone) | self-aminoacylation (biotinyl-Leu-oxazolone) | self-aminoacylation (biotinyl-Ile-oxazolone) | self-aminoacylation (biotinyl-Trp-oxazolone) | self-aminoacylation (biotinyl-Phe-oxazolone) | self-aminoacylation (biotinyl-Met-oxazolone)
AUUCACCUAGGACAUCGGUUG [Fam2.2 aminoacylation ribozyme variant] | 1.03 | 1.28 | 0.888 | 0.663 | 2.89 | 0.919
AUUCACCUAGGACAUGGGGUG [Fam2.2 aminoacylation ribozyme variant] | 3.42 | 7.25 | 3.4 | 5.18 | 42.9 | 5.06
AUUCACCUAGGACCUCGGGUG [Fam2.2 aminoacylation ribozyme variant] | 2.63 | 3.69 | 2.77 | 3.54 | 20.7 | 3.6
AUUCACCUAGGCCAUAGGGUG [Fam2.2 aminoacylation ribozyme variant] | 2.11 | 2.54 | 2.09 | 2.58 | 4.48 | 2.45
AUUCACCUAGGCCAUCGGGAG [Fam2.2 aminoacylation ribozyme variant] | 1.39 | 0.965 | 1.1 | 1.05 | 0.861 | 1.69
AUUCACCUAGGCCAUCGGGUG [Fam2.2 aminoacylation ribozyme variant] | 3.45 | 5.51 | 3.04 | 4.09 | 28.6 | 4.47
AUUCACCUAGGCCAUCGUGUG [Fam2.2 aminoacylation ribozyme variant] | 0.966 | 0.946 | 0.998 | 0.88 | 2.6 | 0.898
AUUCACCUAGGGCAGCGGGUG [Fam2.2 aminoacylation ribozyme variant] | 4.76 | 7.39 | 5.78 | 7.98 | 39.8 | 7.29
AUUCACCUAGGGCAUCGGAUG [Fam2.2 aminoacylation ribozyme variant] | 0.873 | 0.894 | 0.923 | 0.646 | 0.411 | 0.506
AUUCACCUAGGGCAUCGGCUG [Fam2.2 aminoacylation ribozyme variant] | 2.01 | 2.42 | 1.75 | 1.64 | 7.35 | 2.03
AUUCACCUAGGGCAUCGGGCG [Fam2.2 aminoacylation ribozyme variant] | 4.35 | 4.74 | 3.54 | 2.7 | 15.7 | 3.47
AUUCACCUAGGGGAUCGGGUG [Fam2.2 aminoacylation ribozyme variant] | 3.26 | 6.82 | 3.44 | 4.28 | 32 | 4.34
AUUCACCUAGGUAAUCGGGUG [Fam2.2 aminoacylation ribozyme variant] | 1.85 | 3.64 | 1.85 | 2.81 | 17.5 | 2.8
AUUCACCUAGGUAAUGGGGUG [Fam2.2 aminoacylation ribozyme variant] | 2.58 | 6.27 | 2.4 | 4.53 | 27.6 | 5.17
AUUCACCUAGGUCAACGCGUG [Fam2.2 aminoacylation ribozyme variant] | 3.6 | 7.6 | 3.59 | 5.44 | 43.4 | 5.53
AUUCACCUAGGUCAACGGAUG [Fam2.2 aminoacylation ribozyme variant] | 0.726 | 0.549 | 0.758 | 0.259 | 0.356 | 0.667
AUUCACCUAGGUCAACGGGUU [Fam2.2 aminoacylation ribozyme variant] | 1.16 | 1.26 | 1.22 | 0.946 | 0.45 | 1.33
AUUCACCUAGGUCACCAGGUG [Fam2.2 aminoacylation ribozyme variant] | 1.49 | 1.61 | 1.51 | 1.64 | 1.24 | 1.51
AUUCACCUAGGUCACCGGGUU [Fam2.2 aminoacylation ribozyme variant] | 1.98 | 2.59 | 1.77 | 3.01 | 10 | 2.18
AUUCACCUAGGUCACGGGGUG [Fam2.2 aminoacylation ribozyme variant] | 3.03 | 5.76 | 2.98 | 4.51 | 22.1 | 4.08
AUUCACCUAGGUCAGAGGGUG [Fam2.2 aminoacylation ribozyme variant] | 1.14 | 1.49 | 1.1 | 1.68 | 4.38 | 1.36
AUUCACCUAGGUCAGCGCGUG [Fam2.2 aminoacylation ribozyme variant] | 6.75 | 14.9 | 6.84 | 11 | 71.2 | 10.9
AUUCACCUAGGUCAGCGGGUA [Fam2.2 aminoacylation ribozyme variant] | 2.08 | 3.01 | 2.12 | 2.05 | 10.5 | 2.18
AUUCACCUAGGUCAUAGUGUG [Fam2.2 aminoacylation ribozyme variant] | 0.727 | 0.67 | 0.658 | 0.453 | 0.512 | 0.625
AUUCACCUAGGUCAUCCCGUG [Fam2.2 aminoacylation ribozyme variant] | 3.25 | 4.87 | 3.32 | 5.25 | 26.7 | 4.13
AUUCACCUAGGUCAUCCGAUG [Fam2.2 aminoacylation ribozyme variant] | 1.95 | 1.24 | 1.43 | 1.09 | 2.62 | 1.54
